# Patent US12187807B2, “Antibody molecules to C5AR1 and uses thereof” (Visterra, Inc., priority 2020, dated 2025)
# T1: biotinylated peptide representing the N-terminus of C5aR1 with tyrosine sulfation (Homo sapiens, UniProt P21730)
# T1 construct: the N-terminus with tyrosine sulfation
# T1 sequence (P21730 1-37): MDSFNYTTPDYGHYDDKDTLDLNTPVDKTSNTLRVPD
# T2: biotinylated peptide representing the N-terminus of C5aR1 without tyrosine sulfation (Homo sapiens, UniProt P21730)
# T2 construct: the N-terminus without tyrosine sulfation
# T2 sequence (P21730 1-37 limits assumed): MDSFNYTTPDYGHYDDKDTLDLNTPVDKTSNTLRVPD
# T3: C5aR1 (C5aR1-U937 cells) (Homo sapiens, UniProt P21730, K279N)
# T3 construct: expressed in transfected cells
# T3 sequence (P21730 with tags, fused parts or gaps K279N limits assumed): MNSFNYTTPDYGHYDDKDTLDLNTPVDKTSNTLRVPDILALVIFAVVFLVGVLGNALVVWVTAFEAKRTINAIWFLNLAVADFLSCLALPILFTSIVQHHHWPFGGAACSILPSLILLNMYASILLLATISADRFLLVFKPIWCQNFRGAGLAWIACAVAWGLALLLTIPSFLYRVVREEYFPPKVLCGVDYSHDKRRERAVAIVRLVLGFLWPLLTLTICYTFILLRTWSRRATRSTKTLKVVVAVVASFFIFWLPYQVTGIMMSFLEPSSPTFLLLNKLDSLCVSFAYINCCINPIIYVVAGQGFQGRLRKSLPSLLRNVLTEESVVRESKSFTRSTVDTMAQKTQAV
# T4: C5aR1 (Homo sapiens, UniProt P21730)
# T4 sequence (P21730 1-350): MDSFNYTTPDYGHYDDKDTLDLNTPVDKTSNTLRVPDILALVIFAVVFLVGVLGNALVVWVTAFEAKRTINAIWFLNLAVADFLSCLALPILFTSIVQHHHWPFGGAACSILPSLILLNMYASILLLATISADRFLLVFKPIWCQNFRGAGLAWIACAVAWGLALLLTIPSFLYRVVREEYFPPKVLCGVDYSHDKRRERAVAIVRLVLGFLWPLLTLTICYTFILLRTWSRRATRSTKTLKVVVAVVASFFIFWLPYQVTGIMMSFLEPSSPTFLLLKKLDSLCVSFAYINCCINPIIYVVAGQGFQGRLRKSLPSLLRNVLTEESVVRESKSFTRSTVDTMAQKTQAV
# T5: C5aR1 (human neutrophils) (Homo sapiens, UniProt P21730)
# T5 construct: neutrophils isolated from whole blood; host or cells: human neutrophils (cryopreserved, or isolated from whole blood)
# T5 sequence (P21730 1-350): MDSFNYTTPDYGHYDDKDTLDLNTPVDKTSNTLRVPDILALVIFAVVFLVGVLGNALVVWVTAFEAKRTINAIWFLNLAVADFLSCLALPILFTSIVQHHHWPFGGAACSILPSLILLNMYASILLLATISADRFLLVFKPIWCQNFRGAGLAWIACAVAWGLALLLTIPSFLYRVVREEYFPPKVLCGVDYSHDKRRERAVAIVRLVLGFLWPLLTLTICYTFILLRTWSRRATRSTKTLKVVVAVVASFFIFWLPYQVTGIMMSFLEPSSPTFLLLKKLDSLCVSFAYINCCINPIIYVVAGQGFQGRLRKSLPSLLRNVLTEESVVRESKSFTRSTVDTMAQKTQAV
# T6: human C5aR1 transiently expressed on the surface of Expi293 cells (Homo sapiens, UniProt P21730, K279N)
# T6 construct: expressed in transfected cells; host or cells: Expi293 cells, transient
# T6 sequence (P21730 with tags, fused parts or gaps K279N limits assumed): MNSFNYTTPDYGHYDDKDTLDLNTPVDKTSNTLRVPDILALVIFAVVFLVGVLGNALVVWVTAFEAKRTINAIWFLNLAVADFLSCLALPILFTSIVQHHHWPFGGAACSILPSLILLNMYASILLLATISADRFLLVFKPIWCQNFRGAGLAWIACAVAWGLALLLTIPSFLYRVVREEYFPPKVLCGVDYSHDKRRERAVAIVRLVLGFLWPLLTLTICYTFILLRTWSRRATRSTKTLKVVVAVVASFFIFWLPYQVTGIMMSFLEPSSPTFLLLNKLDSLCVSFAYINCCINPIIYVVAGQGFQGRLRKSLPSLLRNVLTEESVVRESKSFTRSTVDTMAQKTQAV
# Key:
# [1] = target: T7, biotinylated peptide representing ECL2 of C5aR1 (Homo sapiens, UniProt P21730); assay: Epitope mapping by biolayer interferometry, ECL2 peptide; type: binding; parameters: key: “+” indicates binding to the listed peptide; “−” indicates lack of binding to the listed peptide; conditions: biolayer interferometry, 10 μg/mL of antibody, biotinylated peptide on streptavidin biosensor
# T7 construct: cyclic ECL2 peptide spanning from residues R175 to C188
# Experimental: (§1) The epitope mapping was undertaken, using biolayer interferometry, on a series of exemplary anti-C5aR1 antibodies generated as described in Example 1. Briefly, for each antibody, biotinylated peptides representing ECL2, the N-terminus with tyrosine sulfation, and the N-terminus without tyrosine sulfation, were immobilized in a streptavidin biosensor. Subsequently, the biosensor was exposed to 10 μg/mL of antibody to detect antibody binding to the immobilized peptide. The results of the epitope mapping study are shown in Table 4 (“+” indicates binding to the listed peptide; “−” indicates lack of binding to the listed peptide).
# [2] = target: T1, biotinylated peptide representing the N-terminus of C5aR1 with tyrosine sulfation; assay: Epitope mapping by biolayer interferometry, N-terminus with tyrosine sulfation; type: binding; parameters: key: “+” indicates binding to the listed peptide; “−” indicates lack of binding to the listed peptide; conditions: 10 μg/mL of antibody, biotinylated peptide on streptavidin biosensor
# Experimental: as §1
# [3] = target: T2, biotinylated peptide representing the N-terminus of C5aR1 without tyrosine sulfation; assay: Epitope mapping by biolayer interferometry, N-terminus without tyrosine sulfation; type: binding; parameters: key: “+” indicates binding to the listed peptide; “−” indicates lack of binding to the listed peptide; conditions: 10 μg/mL of antibody, biotinylated peptide on streptavidin biosensor
# Experimental: as §1
# [4] = target: T3, C5aR1 (C5aR1-U937 cells); assay: C5a induced chemotaxis (transwell), C5aR1-U937 cells; type: cell-based; conditions: C5aR1-U937 cells; 1, 10, or 100 nM antibody; C5a 10^−6 to 10^−9.5 M
# Source text: (§2) One of the primary mechanisms by which neutrophils migrate to the site of inflammation is by chemotaxis induced by a C5a/C5adesArg gradient is detected by C5aR1 signaling. Anti-C5aR1 antibodies were thus assessed in a chemotaxis assay for their ability to block C5a induced migration of neutrophils. The assay involved cell migration in a double chamber well separated by filters. The cells and inhibitors were applied into the upper chamber and the lower chamber was filled with the chemoattractant, causing the cells to migrate to the lower chamber. The inhibition activity was evaluated by counting the migrated cell numbers. Specifically, a titration of C5a was added to the bottom chamber a 96 transwell plate. Cells expressing human C5aR1 (C5aR1-U937 cells or human neutrophils) were incubated with or without antagonist and then seeded into the top chamber of the transwell plate. The cells were incubated for 2 hours. Cells that migrated to the bottom chamber were quantified using the CyQUANT cell proliferation kit following the manufacturer's protocol. The assay was performed using engineered cells stably expressing C5aR1 as well as using human neutrophils.
# as §2, with “Anti-C5aR1” for “One of the primary mechanisms by which neutrophils migrate to the site of inflammation is by chemotaxis induced by a C5a/C5adesArg gradient is detected by C5aR1 signaling. Anti-C5aR1”, “were” for “were thus”
# In a first experiment, C5aR1-U937 cells were seeded into the top chamber of a 96 Transwell plate in the presence of no antibody (antagonist), or of 1, 10, or 100 nM antibody (antagonist).
# [5] = target: T3, C5aR1 (C5aR1-U937 cells); assay: C5a induced calcium flux (Fluo-4), C5aR1-U937 cells; type: cell-based
# Source text: (§3) Intracellular calcium is released into the cytoplasm by stimulation of GPCRs and acts as a second messenger of GPCR signaling, commonly used to quantify GPCR agonism and antagonism. As such, calcium flux assays using calcium sensitive dye were utilized to detect cytosolic changes in calcium concentration. […] The dye penetrated the cell membrane and became active once inside the cell. The active form of the dye became fluorescent after binding to intracellular calcium and the fluorescence was used to determine C5aR1 signaling in response to C5a addition. Specifically, stable C5aR1-U937 cells or neutrophils isolated from whole blood were stained with Fluo-4 Direct Calcium Assay kit from Thermo Fisher for 1 hour at 37° C. Next, antibody or antagonist was incubated with the cells for 30 minutes. The basal fluorescence with an excitation at 494 nm and emission at 516 nm was measured for 15 seconds. C5a was added to the cells and the fluorescence was measured over a span of four minutes. The basal read from before C5a stimulation and the max signal after C5a stimulation were used to calculate the response ratio. The potency of the antibodies was assessed for their ability to inhibit intracellular calcium release in C5aR1 expressing cells in the presence of C5a. Similar to the chemotaxis assay, the calcium flux assays were performed using engineered cells stably expressing C5aR1 as well as using human neutrophils.
# [6] = target: T4, C5aR1; assay: GeneBLAzer reporter assay (C5aR1 mediated Gα signaling); type: cell-based; parameters: host or cells: vendor's C5aR1 GeneBLAzer reporter cell line; conditions: 10 nM of antibody, 10 nM C5a
# Experimental: In addition, a GeneBLAzer reporter assay was used, which mimics the calcium flux assay. The GeneBLAzer assay kit and C5aR1 cell line were commercially available from Thermo Fisher (Catalog #K1544). The assay was performed as recommend by the manufacturer. Briefly, antibodies or antagonists were incubated for 30 minutes at 37° C. C5a was then added to the cells and incubated at 37° C. for an additional 4-5 hours. Beta-lactamase substrate was then added and incubated for 2 hours at room temperature. Fluorescent measurements for each well with an excitation/emission of 409/460 (blue) and 409/530 (green) were measured. An increase in the blue to green ratio was proportional to C5aR1 activation and was used to calculate the percent of activation for the cells in each well.
# Exemplary anti-C5aR1 antibodies generated as described in Example 1 were screened for antagonist activity against human C5aR1 using the GeneBLAzer assay, as described in Example 1. Briefly, cells were pre-incubated with 10 nM of antibody followed by addition of 10 nM C5a. The engineered induction of beta-lactamase expression by C5a-C5aR1 signaling was measured using the BLA substrate and calculating the ratio of blue and green fluorescence.
# [7] = target: T5, C5aR1 (human neutrophils); assay: C5a induced calcium flux (Fluo-4), human neutrophils; type: cell-based
# Source text: as §3
# [8] = target: T6, human C5aR1 transiently expressed on the surface of Expi293 cells; assay: Cell surface binding (flow cytometry), Expi293 cells transiently expressing human C5aR1; conditions: staining with 100 nM of antibody
# Experimental: (§4) Follow up screening to ensure specificity was performed by measuring cell surface binding to cells expressing, for example, human C5aR1, human C5aR2, mouse C5aR1, and control cells that were mock transfected. Briefly, cell surface binding was performed on various C5aR1 expressing cell lines (transiently expressed Expi293 cells, stable C5aR1-U937 cells, and neutrophils isolated from whole blood). Briefly, a titration of antibody diluted in flow buffer (1×PBS with 2% fetal bovine serum) was incubated with cells for 1 hour at 4° C. Cells were washed twice with flow buffer. Anti-human-APC secondary antibody was diluted 1:400 in flow buffer and incubated with cells for 30 minutes. Cells were washed twice with flow buffer and resuspended in 100 μL of flow buffer. Fluorescence was measured using the iQue Screen Plus flow cytometer.
# [9] = tested on: control cells that were mock transfected; assay: Cell surface binding (flow cytometry), mock transfected Expi293 control cells; conditions: staining with 100 nM of antibody
# Experimental: as §4
Binding to Cyclic ECL2 peptide [1],Binding to Sulfated N-terminal peptide [2],Binding to Non-sulfated N-terminal peptide [3],inhibition of cell chemotaxis [4],antagonism of C5aR1 compared to reference antibodies or to Avacopan [6],"Cell surface binding, Human C5aR1, geometric mean fluorescent intensity [8]",Molecule,inhibition of C5a induced intracellular calcium flux [5],inhibition of C5a induced calcium efflux [7],"Cell surface binding, Mock transfection, geometric mean fluorescent intensity [9]"
+,−,−,,,,"clone 336v2-1: exemplary anti-C5aR1 antibody, Table 1C (antibody, V domains shown) VH: QVQLKQSGPGLVQSSQSLSITCTVSGFSLISYGVHWVRQSPGKGLEWLGVIWSGGSTDYNAAFKSRLSITKDNSKSQVFFKMNSLQADDTAIYYCAKNSQLGNAMDYWGQGTTVTVSS VL: DIVMSQSPSSLAVSAGEKVTMSCKSSQSLLSSRTRKNYLAWYQQKPGQSPKLLIYWASTRESGVPDRFTGSGSGTDFTLTISSVQAEDLALYFCNQSYDLLTFGAGTKLEIK",,,
+,−,−,strongest effects,improved,,"clone 11v2: anti-C5aR1 Site II antibody; VH SEQ ID NO: 482, VL SEQ ID NO: 542 (antibody, V domains shown) VH: QVQLQQSGPELVKPGASVKISCKASGYSFSSSWMNWVKQRPGKGLEWIGRISPGDGDTRYSGKFKGKATLTADKSSSTAYMQVTSLTSEDSAIYFCVRFLITSTRYVMDYWGQGTTVTVSS VL: DVVMTQTPLSLPVSLGDQASISCRSSQSLVHSNGNTYLHWYLQKPGQSPKLLIYKVSNRFSGVPDRFSGSGSGTDFTLKISRVEAEDLGVYFCSQSTLVPPTFGGGTKLEIK",inhibition of the C5a induced calcium efflux,inhibition of the C5a induced calcium efflux,
,,,,,"8,106","Clone_317v2-1 (antibody, V domains shown) VH: QVQLQQPGAELVMPGASVKLSCKASGYTFTSYWMHWVKQRPGQGLEWIGEIDPSDSYTNYNQKFKGKATLTVDKSSSTAYMQLSSLTSEDSAVYYCARVAYYSNFGGFAYWGQGTTVTVSS VL: DIVMTQSPSSLSVSAGEKVTMSCKSSQSLLKSGNQKNYLAWHQQKPGQPPKLLIYGASTRESGVPDRFTGSGSGTDFTLTISSVQAEDLAVYYCQNDHSHPYTFGGGTKLEIK",,,"4,535 Clone_507"
